Laboratory results reported in PMC4464074, “The HRDC domain of E. coli RecQ helicase controls single-stranded DNA translocation and double-stranded DNA unwinding rates without affecting mechanoenzymatic coupling”.

Columns and labels:
Assay in all cases: fluorescence anisotropy; SF50: 50 mM Tris-HCl pH 7.5, 50 mM NaCl, 1 mM DTT, 5 mM MgCl2, 50 µg/mL BSA, 25 °C; anisotropy with 10 nM forked duplex
Settings in all cases: protein: recombinant; label: 3'-fluorescein on fork2; fork: 33 bp duplex with two 21-nt ssDNA arms (3' arm of fork1, 5' arm of fork2)
RecQ523 = RecQ523 (Escherichia coli, UniProt P15043 1-523)
RecQWT = RecQWT (Escherichia coli, UniProt P15043 1-609)
RecQY555A = RecQY555A (Escherichia coli, UniProt P15043 1-609, Y555A)

B1: forked duplex (fork1/fork2) (mixed)
DNA 1: CGTTGCGCAATTAAGCTCTAAGCCATCCGCAAATTTTTTTTTTTTTTTTTTTTT
DNA 2: TCCTTTTGATAAGAGGTCATTTTTGCGGATGGTTAGAGCTTAATTGCGCAACG
Kd (RecQ523): 60 ± 2 nM
Kd (RecQWT): 13 ± 4 nM
Kd (RecQY555A): 46 ± 2 nM
